This passage reports subunits in the intercellular channel (Cx46 and Cx50 together) results from article PMC7455559.

For the assay, the target named is connexin-50 (native, sheep lens) (sheep) (UniProt P55917). Briefly: cryo-EM structure; native Cx46/50 intercellular channels from sheep lens in a pair of MSP1E1/DMPC nanodiscs; 20 mM HEPES pH 7.4, 150 mM NaCl; single-particle reconstruction with D6 symmetry, 1.90 Å (2.3 Å without symmetry); the two isoforms could not be told apart by image classification.

Regarding “connexin-46 (native, sheep lens) (from UniProt Q9TU17 1-413) (natural protein)”, the subunits in the intercellular channel (Cx46 and Cx50 together) was 12.
